Data from US10442866 (BEIJING MABWORKS BIOTECH, dated 2019).
Residue numbers refer to the chain shown, from its start. Like-named read-outs stand apart in the source and are kept apart here. Each block holds one binder with its values, some of them ahead of it.

What was measured:
[1] = target: T1, recombinant rhesus OX40-his (Sino Biological, Cat#:90846-C08H) (rhesus monkey, UniProt P43489 29-214 (human entry)); test: ELISA on coated rhesus OX40-His, OD450
T1 construct: bought protein; also called monkey OX40-his; rhOX40-his; not shown: His tag
T1 chain: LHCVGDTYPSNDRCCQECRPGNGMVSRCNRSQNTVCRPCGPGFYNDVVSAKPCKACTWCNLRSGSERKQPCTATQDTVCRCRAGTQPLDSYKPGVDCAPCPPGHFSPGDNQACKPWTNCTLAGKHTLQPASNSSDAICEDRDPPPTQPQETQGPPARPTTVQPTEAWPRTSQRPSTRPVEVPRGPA

[2] = target: T2, human 4-1BB (TNFRSF9, ACRO, Cat#:41B-H522a) (human, UniProt Q07011 24-186); test: ELISA on coated recombinant human TNFRSF protein, OD450
T2 construct: bought recombinant protein
Protocol: (§1) ELISA assays were performed to determine the binding specificity of anti-OX40 antibodies to human OX40, in comparison to other human TNFRSF members with homologous amino acid sequences, following the protocol described in Example 2.

[3] = target: T3, human CD40-his (TNFRSF5, Sino Biological, Cat#:10774-H08H) (human, UniProt P25942 21-193); test: as above
T3 construct: bought protein; also called recombinant human CD40 (TNFRSF5); not shown: His tag
Protocol: as §1

[4] = target: T4, human DR6 (TNFRSF21, Sino Biological, Cat#: 10175-H08H) (human, UniProt O75509 42-349); test: as above
T4 construct: bought recombinant protein
T4 sequence (looked up): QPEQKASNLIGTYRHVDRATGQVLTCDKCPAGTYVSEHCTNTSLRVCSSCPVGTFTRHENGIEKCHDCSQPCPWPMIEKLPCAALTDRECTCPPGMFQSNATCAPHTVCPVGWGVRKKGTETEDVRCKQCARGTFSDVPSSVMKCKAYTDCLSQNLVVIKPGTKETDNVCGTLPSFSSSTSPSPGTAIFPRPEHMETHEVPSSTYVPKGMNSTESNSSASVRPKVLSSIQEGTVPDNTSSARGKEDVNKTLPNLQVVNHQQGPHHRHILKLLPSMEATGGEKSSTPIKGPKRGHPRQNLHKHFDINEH
Protocol: as §1

[5] = target: T5, recombinant human OX40-his (Sino Biological, Cat#:10481-H03H) (human, UniProt P43489 29-214); test: ELISA on coated human OX40-his, OD450
T5 construct: bought protein; also called hOX40-his; not shown: His tag
T5 sequence: T1 chain with Q16H, N29S, A50S, A55P, P70L, P145A, T159I, R173G, R183G, P185R

[6] = target: T6, murine OX40-His (Crown, Cat#: E3350-B1707) (mouse, UniProt P47741 20-211); test: ELISA on coated mouse OX40-His, OD450
T6 construct: bought protein; also called mouse OX40-his; muOX40-his; not shown: His tag
T6 sequence: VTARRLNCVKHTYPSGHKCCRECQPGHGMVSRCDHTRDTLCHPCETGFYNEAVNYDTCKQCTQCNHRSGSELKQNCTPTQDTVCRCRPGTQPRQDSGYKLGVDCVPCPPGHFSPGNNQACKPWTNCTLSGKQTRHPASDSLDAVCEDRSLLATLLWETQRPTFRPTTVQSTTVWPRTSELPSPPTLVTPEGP

[7] = target: T6, murine OX40-His (Crown, Cat#: …); test: ELISA on coated mouse OX40-His, OD450; remark: listed apart in the source
[8] = target: T5, recombinant human OX40-his (Sino …); test: ELISA on coated human OX40-His, OD450
[9] = target: T5, recombinant human OX40-his (Sino …); test: ELISA on coated human OX40-his, OD450; remark: listed apart in the source
[10] = target: T1, recombinant rhesus OX40-his (Sino …); test: ELISA on coated rhesus OX40-His, OD450

T3 sequence (P25942 21-193 limits assumed): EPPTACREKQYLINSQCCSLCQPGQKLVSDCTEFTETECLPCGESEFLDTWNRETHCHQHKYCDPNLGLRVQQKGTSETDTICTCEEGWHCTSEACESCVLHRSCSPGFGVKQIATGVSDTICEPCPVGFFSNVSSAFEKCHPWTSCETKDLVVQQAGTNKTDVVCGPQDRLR

binding result [1]: binds | EC50 (read off the curve) [5]: ~3 ng/mL | binding result [6]: no binding (tested: 10000 ng/ml (log 4))
B1: 68C8-VH2VL3 (antibody, human IgG1, kappa, V domains shown)
VH: QVQLVQSGAEVKKPGASVKVSCKVSGDTFTSYWITWVRQRPGKGLEWMGDIHPGSGSTNNNEKFKNRVTMTVDTSTDTAYMELSSLRSEDTAVYYCATLRPYYFVYWGQGTLVTVSS
VL: DIQMTQSPSSLSASVGDRVTITCRASQDISNYLNWYQQKPGKTVKLLIYYTSRLLSGVPSRFSGSGSGTDYTLTISSLQPEDFATYFCQQGNTLPLTFGQGTRLEIKR
notes: humanized; also called 68C8-H2L3; 68C8H2L3
binding result [2]: no binding (tested: about 10000 ng/mL (log about 4)) | binding result [3]: no binding (tested: about 10000 ng/mL (log about 4)) | binding result [4]: no binding (tested: about 10000 ng/mL (log about 4))

binding result [7]: no binding (tested: 10000 ng/ml (log 4)) | EC50 (read off the curve) [8]: ~3 ng/mL | EC50 (read off the curve) [9]: ~7 ng/mL | EC50 (read off the curve) [10]: ~3 ng/mL
B2: 71H8-VH2VL3 (antibody, human IgG1, kappa, V domains shown)
VH: B1 VH with D27Y, H52Y, N60Q, N66S
VL: B1 VL
notes: humanized; also called 71H8-H2L3; 71H8H2L3
binding result [2]: no binding (tested: about 10000 ng/mL (log about 4)) | binding result [3]: no binding (tested: about 10000 ng/mL (log about 4)) | binding result [4]: no binding (tested: about 10000 ng/mL (log about 4))
